Reference: patent US20100233714
Read-outs that look alike come from different tables or passages of the source.

Legend:
[1] = system: IgG1, monoclonal human (Homo sapiens); experiment: filter; settings: pH 6, 41 mM Na+
[2] = system: IgG Fab2 fragment (mouse) (Mus musculus); experiment: filter; settings: pH 6, 41 mM Na+
[3] = system: IgM, monoclonal human (Homo sapiens); experiment: filter; settings: pH 6, 41 mM Na+
[4] = system: IgG, polyclonal mixed human (Homo sapiens); experiment: filter; settings: pH 6, 41 mM Na+
[5] = system: IgG Fab2 fragment (human) (Homo sapiens); experiment: filter; settings: pH 6, 41 mM Na+
[6] = system: IgA, monoclonal human (Homo sapiens); experiment: filter; settings: pH 6, 41 mM Na+
[7] = system: IgG Fc fragment (human) (Homo sapiens), P01857-1; experiment: filter; settings: pH 6, 41 mM Na+
[8] = system: IgG, polyclonal mouse (Mus musculus); experiment: filter; settings: pH 6, 41 mM Na+
[9] = system: IgG3, monoclonal human (Homo sapiens); experiment: filter; settings: pH 6, 41 mM Na+
[10] = system: IgG2, monoclonal human (Homo sapiens); experiment: filter; settings: pH 6, 41 mM Na+
[11] = system: IgG4, monoclonal human (Homo sapiens); settings: ultrafiltration, Picogreen, 37.5 mM NaCl, 3.75 mM Na citrate, pH 6.0
[12] = system: IgG3, monoclonal human (Homo sapiens); settings: ultrafiltration, Picogreen; 37.5 mM NaCl, 3.75 mM Na citrate, pH 6.0
[13] = hexaethylene glycol (HEG, iSp18) linkers as loops

| Sequence | Ka [1] | Ka [2] | Ka [3] | Ka [5] | Ka [6] | Ka [7] | Ka [8] | Ka [9] | Ka [10] | Ka [11] | further results |
| --- | --- | --- | --- | --- | --- | --- | --- | --- | --- | --- | --- |
| CCCTCCCTGGGCTTTTTTTGATTTTTCTTAA [RAD4] | 7.52 log10 M-1 | 7.09 log10 M-1 | 6.89 log10 M-1 | 6.89 log10 M-1 | 7.66 log10 M-1 | 5.26 log10 M-1 | 7.71 log10 M-1 | 6.66 log10 M-1 | 7.67 log10 M-1 | 7.13 log10 M-1 | Ka ([4]; pH5 8.48, pH7 7.10, pH8 7.02, Table 2 pH 6 6.89): 8.13 log10 M-1 |
| CCTCTTCCTTCTCCGGAGAAG [RAD1] |  |  |  |  |  |  |  |  |  |  | Ka ([11]; hexaethylene glycol (iSp18) linkers between the three segments): 6.37 log10 M-1 |
| CCTCTTCHEGCTTCTCCHEGGGAGAAG [RAD1] |  |  |  |  |  |  |  |  |  |  | Ka [1, 13]: 6.38 log10 M-1; Ka [2, 13]: 6.38 log10 M-1; Ka [3, 13]: 6.32 log10 M-1; Ka ([4]; hexaethylene glycol (HEG, iSp18) linkers as loops, ultrafiltration, pH5 7.45, pH7 6.49, pH8 6.30, Table 2 (0.15 M NaCl, 1 mM MgCl2, pH 6) 7.01): 6.51 log10 M-1; Ka [5, 13]: 5.82 log10 M-1; Ka [6, 13]: 6.37 log10 M-1; Ka [7, 13]: 5.8 log10 M-1; Ka [8, 13]: 6.6 log10 M-1; Ka [9, 13]: 6.17 log10 M-1; Ka [10, 13]: 6.51 log10 M-1 |
| CCTCTTCTTTTTCTTCTC [RAD20] | 7.34 log10 M-1 | 7.41 log10 M-1 | 7.02 log10 M-1 | 6.9 log10 M-1 | 7.53 log10 M-1 | 5.96 log10 M-1 | 8.3 log10 M-1 | 6.84 log10 M-1 | 7.85 log10 M-1 | 7.67 log10 M-1 | Ka ([4]; pH5 8.11, pH7 7.40, pH8 6.64): 7.98 log10 M-1 |
| CCTCTTCTTTTTCTTCTCCTTTTTGGAGAAG [RAD2 (triplex 31mer)] | 7.04 log10 M-1 | 6.71 log10 M-1 | 6.73 log10 M-1 | 6.45 log10 M-1 | 6.9 log10 M-1 | 5.86 log10 M-1 | 7.49 log10 M-1 | 6.64 log10 M-1 | 7.06 log10 M-1 | 7.08 log10 M-1 | Ka ([4]; pH5 8.74, pH7 6.96, pH8 6.57, Table 2 pH 6 6.96): 7.61 log10 M-1 |
| CCTTCCTTTGGAAGGTTG [RAD23] | 6.14 log10 M-1 | 6.33 log10 M-1 | 6.08 log10 M-1 | 5.64 log10 M-1 | 6.38 log10 M-1 |  | 6.77 log10 M-1 | 5.62 log10 M-1 | 6.86 log10 M-1 | 5.97 log10 M-1 | Ka ([4]; pH5 7.37, pH7 6.31, pH8 6.21): 6.88 log10 M-1 |
| CGCGAAAACGCG [RAD22] |  |  |  |  |  |  |  |  |  |  | Ka ([4]; pH5 5.95, pH7 6.04, pH8 5.97): 6.25 log10 M-1 |
| CTCTCTCTTTTTCTCTCTCTTTTTGAGAGAG [RAD9] | 7.05 log10 M-1 | 6.75 log10 M-1 | 6.79 log10 M-1 | 6.44 log10 M-1 | 6.95 log10 M-1 | 5.87 log10 M-1 | 7.46 log10 M-1 |  | 7.05 log10 M-1 | 7.06 log10 M-1 | Ka ([4]; pH5 8.67, pH7 7.04, pH8 6.94, Table 2 pH 6 7.02): 7.74 log10 M-1; Ka [12]: 6.62 log10 M-1 |
| GAGAGAGTTTTTGAGAGAGTTTTTCTCTCTC [RAD7] | 7.3 log10 M-1 | 6.97 log10 M-1 | 6.89 log10 M-1 | 6.68 log10 M-1 | 7.33 log10 M-1 | 5.99 log10 M-1 | 7.69 log10 M-1 | 6.74 log10 M-1 | 7.25 log10 M-1 | 7.16 log10 M-1 | Ka ([4]; pH5 8.51, pH7 6.97, pH8 6.79, Table 2 pH 6 6.86): 8.04 log10 M-1 |
| GAGTGAGTCTCAGTTAGTTTCGATTGATTCT [RAD5] |  |  |  |  |  |  |  |  |  |  | Ka ([4]; pH5 8.75, pH7 7.11, pH8 6.81, Table 2 pH 6 6.82): 8.03 log10 M-1 |
| GGAAAGGTTTTTGGAAAGGTTTTTCCTTTCC [RAD6] |  |  |  |  |  |  |  |  |  |  | Ka ([4]; pH5 8.50, pH7 6.86, pH8 6.74, Table 2 pH 6 6.84): 7.96 log10 M-1 |
| GGTTGGTTTGGTTGG [RAD13] |  |  |  |  |  |  |  |  |  |  | Ka ([4]; pH5 7.55, pH7 6.46, pH8 6.53): 6.96 log10 M-1 |
| TGGAGTCTGCGCGAGTCAGCGCTCAAGATC [RAD8] |  |  |  |  |  |  |  |  |  |  | Ka ([4]; pH5 8.41, pH7 6.86, pH8 6.84, Table 2 pH 6 6.13): 7.85 log10 M-1 |
| TGGGCCGGTAACGGATTACCGTAAGGTCCC [RAD11] |  |  |  |  |  |  |  |  |  |  | Ka ([4]; pH5 8.31, pH7 6.85, pH8 6.85, Table 2 pH 6 6.51): 7.64 log10 M-1 |
| TGGGCCGGTAACGGGTTACCGTAAGGTCCC [RAD10] | 7.04 log10 M-1 | 6.76 log10 M-1 | 6.7 log10 M-1 | 6.43 log10 M-1 | 6.92 log10 M-1 | 5.92 log10 M-1 | 7.53 log10 M-1 |  | 7.01 log10 M-1 | 7 log10 M-1 | Ka ([4]; pH5 8.41, pH7 6.81, pH8 6.72, Table 2 pH 6 6.31): 7.65 log10 M-1; Ka [12]: 6.62 log10 M-1 |
| TGGTTGGTTTTTGGAAGGATTTTTTCCTTCC [RAD3] | 7.45 log10 M-1 | 7.09 log10 M-1 | 6.71 log10 M-1 | 6.97 log10 M-1 | 7.38 log10 M-1 | 6.34 log10 M-1 | 7.69 log10 M-1 | 6.69 log10 M-1 | 7.36 log10 M-1 | 7.2 log10 M-1 | Ka ([4]; pH5 8.60, pH7 6.86, pH8 6.76, Table 2 pH 6 6.71): 7.79 log10 M-1 |
| TTTGGTTGGTTTGGTTGG [RAD19] |  |  |  |  |  |  |  |  |  |  | Ka ([4]; inosine (I) at printed positions [inosine (written G): 4,14], pH5 7.82, pH7 6.50, pH8 6.04): 7.14 log10 M-1 |
| TTTTCGCGCGTACGCGCGCGAA [RAD15] | 6.39 log10 M-1 | 6.21 log10 M-1 | 6.19 log10 M-1 | 5.33 log10 M-1 | 6.23 log10 M-1 |  | 6.35 log10 M-1 |  | 6.18 log10 M-1 | 6.13 log10 M-1 | Ka ([4]; pH5 7.65, pH7 6.33, pH8 6.19): 7 log10 M-1; Ka [12]: 6.22 log10 M-1 |
| TTTTCGCGCGTTAACGCGCGAA [RAD16] | 6.87 log10 M-1 | 6.11 log10 M-1 | 6.26 log10 M-1 | 6.23 log10 M-1 | 6.46 log10 M-1 |  | 7.07 log10 M-1 |  | 6.11 log10 M-1 | 6.54 log10 M-1 | Ka ([4]; pH5 8.22, pH7 7.25, pH8 6.79): 7.8 log10 M-1; Ka [12]: 6.31 log10 M-1 |
| TTTTCGCGTGTGTGCGCGAA [RAD12] |  |  |  |  |  |  |  |  |  |  | Ka ([4]; pH5 7.61, pH7 6.37, pH8 5.74): 6.98 log10 M-1 |
